Laboratory results as given in the RNAGym collection of RNA variant scans (doi:10.7554/elife.80360).

B1: HDV Ribozyme (parent)
chain: GGCCGGCAUGGUCCCAGCCUCCUCGCUGGCGCCGGCUGGGCAACAUUCCGAGGGGACCGUCCCCUCGGUAAUGGCGAAUGGGACCCA

Variants of: B1
Assay: self-cleavage, relative activity (ratio to wild type); higher = more cleavage; co-transcriptional

Row | Variant | self-cleavage
1 | G38U C44A | 0.16
2 | G38U U69G | 0.272
3 | G38U U69A | 0.256
4 | G38U U69C | 0.192
5 | G39A C84A | 0.415
6 | G39A C84U | 0.321
7 | G38C G50C | 0.35
8 | G38C G74U | 0.0739
9 | G38C G67A | 0.194
10 | G38C G67U | 0.366
11 | G38C G67C | 0.157
12 | G38C U69A | 0.095
13 | G38C U69G | 0.356
14 | G39A G54A | 0.54
15 | G38U C62U | 0.337
16 | G39A G50C | 0.504
17 | G39A C66A | 0.441
18 | G39A C66G | 0.437
19 | G38U A43U | 0.0963
20 | G38U G55A | 0.137
21 | G39A C64U | 0.484

Row | Variant | self-cleavage
22 | G39A C64G | 0.492
23 | G39A C64A | 0.458
24 | G38C U79G | 0
25 | G38C U79A | 0.151
26 | G38U G82C | 0.218
27 | G38U G82U | 0.129
28 | G38U U60C | 0.374
29 | G38U U60G | 0.13
30 | G38U U60A | 0.175
31 | G39A C57A | 0.41
32 | G39A C57U | 0.665
33 | G38U G53A | 0.369
34 | G38U G53U | 0.342
35 | G38U G53C | 0.434
36 | G38C G80C | 0.145
37 | G38C G80U | 0.0314
38 | G38C G80A | 0.131
39 | G38U A87U | 0.255
40 | G38U A87C | 0.231
41 | G38C U60G | 0.113
42 | G38U G67C | 0.197

Row | Variant | self-cleavage
43 | G38C G39U | 0.0396
44 | G38C G39A | 0.113
45 | G38U A83C | 0.0773
46 | G38U A83U | 0.0959
47 | G38U G73C | 0.169
48 | G38U G73U | 0.146
49 | G38U G73A | 0.149
50 | G38U U65A | 0.292
51 | G39A C61G | 0.337
52 | G39A G53C | 0.383
53 | G39A G53A | 0.632
54 | G38C G54C | 0.237
55 | G38C G54A | 0.132
56 | G39A C49U | 0.519
57 | G38U G40U | 0.19
58 | G38U G40A | 0.222
59 | G39A A70U | 0.496
60 | G38C U47G | 0.225
61 | G38C U46A | 0.101
62 | G38C G76C | 0.122
63 | G38C G76A | 0.205

Row | Variant | self-cleavage
64 | G38C G76U | 0.47
65 | G38U C58G | 0.306
66 | G38U C58A | 0.164
67 | G38C U72A | 0.158
68 | G38C U72G | 0
69 | G38C C85G | 0.237
70 | G38C C85A | 0.0997
71 | G39A A51U | 0.521
72 | G39A A51G | 0.458
73 | G39A C75G | 0.143
74 | G39A A87U | 0.531
75 | G38U G59U | 0.284
76 | G39A A83U | 0.185
77 | G39A A83G | 0.507
78 | G38C G40A | 0.0978
79 | G38C G40C | 0.0405
80 | G38U C41A | 0.407
81 | G38U C41U | 0.623
82 | G39A G52A | 0.405
83 | G39A G52C | 0.394
84 | G39A G52U | 0.478
